Assay [1] concerns the target T1, purified human integrin αvβ3 from term placenta (human, UniProt P06756 31-1048; P05106 27-788).
T1 construct: mature; also called human placental αvβ3; vitronectin receptor avβ3
The experiment in a line: receptor inhibition assay: coated placental αvβ3, competitor ligand biotinylated vitronectin. How it is done: Method: 1 μg ml⁻¹ biotin-ligand is incubated with 1 μg ml⁻¹ coated receptor in the presence of serially diluted peptides. After 3 h at 30° C. bound ligand was measures by anti-biotin—alkaline phosphatase detection.

Assay [2] deals with T1, purified human integrin αvβ3 from term …. The experiment in a line: solid-phase inhibition assay: immobilized placental αvβ3, competitor ligand vitronectin.
Assay [3] concerns the target T2, recombinant human integrin αvβ3 (human, UniProt P06756 31-992; P05106 27-718).
T2 construct: also called recombinant human αvβ3 integrin; avβ3
As to the kind of experiment: isolated integrin binding assay: adsorbed recombinant human αvβ3, competitor ligand biotinylated human plasma vitronectin. How it is done:
After 3 hours at 37° C., bound ligand is detected using alkaline-phosphatase labelled anti-biotin MAbs (Sigma, St. Louis, Mo.).

The target of assay [4] is T2, recombinant human integrin αvβ3. The experiment in a line: ligand inhibition ELISA: immobilized recombinant human αvβ3, competitor ligand biotinylated human serum vitronectin.

Starred links: 1 amine or outer side, 2 acyl side, 3 side chain; linkers in the order of their positions; H or OH if unused. Non-standard residues stand in square brackets, D forms with d. Primed or numbered codes have the meaning given here. No end group written: not given here. Nhdg = N-hexadecylglycine, CCCCCCCCCCCCCCCCN(CC(=O)[*:2])[*:1]; Aib′ = 3-aminoisobutyric acid (as defined by the filing); Ac6c = NC1(C(=O)O)CCCCC1; NMeA = CN[C@@H](C)C(=O)O; Ac5c = NC1(C(=O)O)CCCC1

T2 sequence (P06756 31-992, chain 1 of 2): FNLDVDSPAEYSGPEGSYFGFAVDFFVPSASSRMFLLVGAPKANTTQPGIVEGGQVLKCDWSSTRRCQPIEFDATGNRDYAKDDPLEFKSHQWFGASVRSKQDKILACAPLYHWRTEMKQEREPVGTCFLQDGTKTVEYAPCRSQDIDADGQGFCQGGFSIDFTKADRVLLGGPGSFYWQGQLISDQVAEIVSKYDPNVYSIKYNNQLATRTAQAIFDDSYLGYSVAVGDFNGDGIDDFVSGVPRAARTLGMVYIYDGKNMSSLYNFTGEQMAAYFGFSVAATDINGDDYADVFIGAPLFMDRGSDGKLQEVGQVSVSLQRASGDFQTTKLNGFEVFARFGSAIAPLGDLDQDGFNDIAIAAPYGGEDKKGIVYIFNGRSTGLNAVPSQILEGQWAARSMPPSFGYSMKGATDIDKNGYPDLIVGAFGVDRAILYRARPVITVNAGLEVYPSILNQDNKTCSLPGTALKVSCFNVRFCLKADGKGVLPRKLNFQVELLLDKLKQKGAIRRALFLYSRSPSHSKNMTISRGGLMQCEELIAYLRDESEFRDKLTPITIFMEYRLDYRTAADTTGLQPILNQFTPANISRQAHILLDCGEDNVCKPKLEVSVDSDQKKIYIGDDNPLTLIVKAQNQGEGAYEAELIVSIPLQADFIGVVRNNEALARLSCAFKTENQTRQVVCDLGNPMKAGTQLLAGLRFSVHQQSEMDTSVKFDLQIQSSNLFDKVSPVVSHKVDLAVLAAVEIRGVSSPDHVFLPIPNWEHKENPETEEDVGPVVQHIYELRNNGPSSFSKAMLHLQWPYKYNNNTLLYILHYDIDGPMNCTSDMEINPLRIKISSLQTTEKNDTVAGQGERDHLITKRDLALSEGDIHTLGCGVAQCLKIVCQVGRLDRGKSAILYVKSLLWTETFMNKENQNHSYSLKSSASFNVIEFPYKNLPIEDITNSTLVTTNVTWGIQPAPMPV
T2 sequence (P05106 27-718, chain 2 of 2): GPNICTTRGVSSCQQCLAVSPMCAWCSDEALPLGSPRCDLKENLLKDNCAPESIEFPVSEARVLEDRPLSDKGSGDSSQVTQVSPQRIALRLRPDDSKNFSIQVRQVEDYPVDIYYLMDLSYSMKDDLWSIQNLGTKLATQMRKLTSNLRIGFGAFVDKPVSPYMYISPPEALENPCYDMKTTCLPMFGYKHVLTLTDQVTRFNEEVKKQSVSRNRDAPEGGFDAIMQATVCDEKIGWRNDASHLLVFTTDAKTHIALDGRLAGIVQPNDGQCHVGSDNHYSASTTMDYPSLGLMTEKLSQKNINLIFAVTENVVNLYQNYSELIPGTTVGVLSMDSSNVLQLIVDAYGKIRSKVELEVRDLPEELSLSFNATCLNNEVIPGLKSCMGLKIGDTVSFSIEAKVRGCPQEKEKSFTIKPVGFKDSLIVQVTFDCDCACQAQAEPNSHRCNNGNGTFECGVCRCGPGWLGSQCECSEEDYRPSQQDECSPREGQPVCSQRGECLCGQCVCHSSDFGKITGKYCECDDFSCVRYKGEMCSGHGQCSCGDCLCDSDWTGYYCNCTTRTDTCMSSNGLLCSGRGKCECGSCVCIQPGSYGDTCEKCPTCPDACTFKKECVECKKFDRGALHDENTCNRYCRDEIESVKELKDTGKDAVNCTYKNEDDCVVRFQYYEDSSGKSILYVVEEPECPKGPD
T1 sequence (P06756 31-1048, form in doubt, chain 1 of 2): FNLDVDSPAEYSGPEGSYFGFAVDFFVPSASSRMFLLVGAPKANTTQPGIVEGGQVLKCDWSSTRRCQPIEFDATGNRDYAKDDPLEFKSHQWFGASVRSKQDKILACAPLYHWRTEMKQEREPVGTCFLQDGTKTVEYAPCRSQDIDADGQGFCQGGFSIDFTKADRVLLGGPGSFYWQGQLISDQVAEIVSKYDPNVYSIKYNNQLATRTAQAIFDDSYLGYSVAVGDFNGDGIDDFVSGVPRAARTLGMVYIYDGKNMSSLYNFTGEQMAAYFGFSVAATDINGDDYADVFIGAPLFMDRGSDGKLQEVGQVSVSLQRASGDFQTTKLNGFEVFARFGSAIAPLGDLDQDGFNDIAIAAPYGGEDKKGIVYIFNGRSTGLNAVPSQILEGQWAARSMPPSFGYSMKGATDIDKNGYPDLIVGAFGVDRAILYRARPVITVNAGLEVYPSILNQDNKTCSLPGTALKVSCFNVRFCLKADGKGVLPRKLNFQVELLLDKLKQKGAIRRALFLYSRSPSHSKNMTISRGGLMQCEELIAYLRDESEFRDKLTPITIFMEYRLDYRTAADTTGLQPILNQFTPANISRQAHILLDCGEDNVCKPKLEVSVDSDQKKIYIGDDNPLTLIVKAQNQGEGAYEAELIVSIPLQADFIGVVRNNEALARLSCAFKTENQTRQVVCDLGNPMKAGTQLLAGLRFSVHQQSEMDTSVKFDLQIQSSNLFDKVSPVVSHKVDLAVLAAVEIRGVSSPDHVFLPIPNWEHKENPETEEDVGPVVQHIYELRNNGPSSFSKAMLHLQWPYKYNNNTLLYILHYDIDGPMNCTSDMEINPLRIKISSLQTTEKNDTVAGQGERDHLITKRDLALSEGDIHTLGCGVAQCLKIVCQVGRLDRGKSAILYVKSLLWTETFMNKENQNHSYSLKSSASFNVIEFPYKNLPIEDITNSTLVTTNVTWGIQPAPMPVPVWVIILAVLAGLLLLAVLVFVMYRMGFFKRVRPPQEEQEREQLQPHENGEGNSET
T1 sequence (P05106 27-788, form in doubt, chain 2 of 2): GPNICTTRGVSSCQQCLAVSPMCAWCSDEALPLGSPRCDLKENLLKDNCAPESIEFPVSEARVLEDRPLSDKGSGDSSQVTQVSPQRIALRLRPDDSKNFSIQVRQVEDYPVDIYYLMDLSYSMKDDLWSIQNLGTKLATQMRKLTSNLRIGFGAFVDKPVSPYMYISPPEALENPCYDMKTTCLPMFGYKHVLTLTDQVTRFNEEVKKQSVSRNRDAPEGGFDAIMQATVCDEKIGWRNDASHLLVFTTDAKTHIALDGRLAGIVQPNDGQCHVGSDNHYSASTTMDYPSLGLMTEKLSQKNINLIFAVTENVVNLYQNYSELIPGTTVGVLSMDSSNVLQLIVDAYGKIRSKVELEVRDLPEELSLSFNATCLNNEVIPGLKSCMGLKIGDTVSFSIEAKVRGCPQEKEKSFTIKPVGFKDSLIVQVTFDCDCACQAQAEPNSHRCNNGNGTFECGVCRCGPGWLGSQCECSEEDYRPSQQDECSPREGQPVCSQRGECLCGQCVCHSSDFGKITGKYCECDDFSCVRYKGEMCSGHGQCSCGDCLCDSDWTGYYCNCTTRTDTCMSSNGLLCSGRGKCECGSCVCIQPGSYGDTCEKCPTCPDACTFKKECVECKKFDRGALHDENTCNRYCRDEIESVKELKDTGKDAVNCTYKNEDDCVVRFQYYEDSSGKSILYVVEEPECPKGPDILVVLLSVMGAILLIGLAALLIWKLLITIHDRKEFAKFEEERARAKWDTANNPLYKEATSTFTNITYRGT

Molecule RGDFG (head-to-tail cyclic (homodetic)) [Cyclo(Arg-Gly-Asp-Phe-Gly)] returned an IC50 in assay [1] of 400 nM.

B1: Cyclo-(Arg-Ala-Asp-DPhe-Val) (peptide)
peptide: cyclo(RAD[dF]V)
SMILES: CC(C)[C@@H]1NC(=O)[C@@H](Cc2ccccc2)NC(=O)[C@H](CC(=O)O)NC(=O)[C@H](C)NC(=O)[C@H](CCCNC(=N)N)NC1=O
notes: also called cyclo(RADfV)
Turning to B1, the half-maximal inhibitory concentration (IC50) in assay [2] is 4000 nM.

B2: Cyclo-(Arg-Gly-Asp-Phe-Nhdg) (peptide)
peptide: cyclo(RGDF[Nhdg])
SMILES: CCCCCCCCCCCCCCCCN1CC(=O)N[C@@H](CCCNC(=N)N)C(=O)NCC(=O)N[C@@H](CC(=O)O)C(=O)N[C@@H](Cc2ccccc2)C1=O
notes: Phe at 4 is printed without D; residue 5 is glycine carrying an N-hexadecyl group
In assay [1], B2 displayed an IC50 of 8 nM.
On the same count and under the same terms, under cyclo(RGD[dF]X) (not fully specified (residue 5); printed as Cyclo-(Arg-Gly-Asp-DPhe-hPro), X = non-natural residue hPro) [Cyclo-(Arg-Gly-Asp-DPhe-hPro)] stands 170 nM.

B3: Cyclo-(Arg-Gly-Asp-DPhe-Acha) (peptide)
peptide: cyclo(RGD[dF][Ac6c])
SMILES: N=C(N)NCCC[C@@H]1NC(=O)C2(CCCCC2)NC(=O)[C@@H](Cc2ccccc2)NC(=O)[C@H](CC(=O)O)NC(=O)CNC1=O
notes: X = non-natural residue Acha; also called CPPC 1; Cyclopeptide
On to B3, for which the half-inhibitory concentration (IC50) was 2 nM in assay [1] and 2.1 nM in assay [3].
cyclo(RGD[dF][Ac5c]) (X = non-natural residue Acpa) [Cyclo-(Arg-Gly-Asp-DPhe-Acpa)] gave an IC50 in assay [1] of 9 nM.
For cyclo(RGD[dF][Aib′]) (X = non-natural residue Aib) [Cyclo-(Arg-Gly-Asp-DPhe-Aib)], the IC50 in assay [1] is 20 nM.

B4: Cyclo-(Arg-Gly-Asp-DPhe-(NMe)Ala) (peptide)
peptide: cyclo(RGD[dF][NMeA])
SMILES: C[C@H]1C(=O)N[C@@H](CCCNC(=N)N)C(=O)NCC(=O)N[C@@H](CC(=O)O)C(=O)N[C@H](Cc2ccccc2)C(=O)N1C
Turning to B4, the IC50 in assay [4] is 24 nM.

B5: Gly-Arg-Gly-Asp-Ser-Pro-Lys-OH (peptide)
peptide: GRGDSPK-OH
notes: Linear peptide with free C-terminus; also called GRGDSPK peptide
B5: in assay [3], the IC50 came to 120 nM.

One may read the IC50 as the midpoint of a concentration-inhibition curve.
